Molecular target: Staphylococcal enterotoxin B (Staphylococcus aureus) (UniProt P01552)
Sequence of UniProt P01552 (P01552 28-266 limits assumed): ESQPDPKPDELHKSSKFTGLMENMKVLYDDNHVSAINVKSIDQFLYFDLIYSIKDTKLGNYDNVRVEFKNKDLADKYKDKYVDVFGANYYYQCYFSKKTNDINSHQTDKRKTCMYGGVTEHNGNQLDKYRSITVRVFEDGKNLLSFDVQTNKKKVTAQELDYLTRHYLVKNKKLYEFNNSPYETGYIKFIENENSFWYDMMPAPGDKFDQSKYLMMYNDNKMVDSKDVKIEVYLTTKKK

Question: Vβ8 CDR2 mutant EGIGYITK (TCR) was tested. Which Kd did it give?
Answer: The Kd was 5 nM.
